# Measurements: article PMC12362333
# Assays:
# [1] = target: KDEL receptor (KDEL‐R) (mouse (endogenous in DRG neurons)) (UniProt Q99JH8)
# [2] = target: KDEL receptor (KDEL‐R) (mouse (endogenous in DRG neurons)) (UniProt Q99JH8); remark: listed apart in the source
# [3] = target: KDEL receptor (KDEL‐R) (mouse (endogenous in DRG neurons)) (UniProt Q99JH8); remark: listed apart in the source
# [4] = target: KDEL receptor (KDEL‐R) (mouse (endogenous in DRG neurons)) (UniProt Q99JH8); remark: listed apart in the source
# [5] = target: KDEL receptor (KDEL‐R) (mouse (endogenous in DRG neurons)) (UniProt Q99JH8); remark: listed apart in the source
# Sequence of UniProt Q99JH8 (Q99JH8 whole entry): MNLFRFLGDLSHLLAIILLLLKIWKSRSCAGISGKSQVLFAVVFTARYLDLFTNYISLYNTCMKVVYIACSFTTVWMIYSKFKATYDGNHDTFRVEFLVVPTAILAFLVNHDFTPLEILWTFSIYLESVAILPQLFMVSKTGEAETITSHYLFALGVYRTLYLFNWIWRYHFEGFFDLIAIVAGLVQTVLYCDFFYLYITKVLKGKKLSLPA
Substance,neurite length of DRG explants after 72 h (Figure 1B) [1] [μm],"neuritic area of DRG explants after 72 h, CDNF-ΔKTEL 1.8 and 18 μg/mL (Figure 1C) [2] [μm^2]","neurite length of DRG explants after NGF deprivation, CDNF-ΔKTEL 18 μg/mL for 48 h (Figure 3B) [3] [μm]","viable cells by LDH release, DRG explants under trophic deprivation, CDNF-ΔKTEL (Figure 3E) [4] [%]","neurite length in dissociated DRG cell cultures, CDNF-ΔKTEL 18 μg/mL, 3 days (Figure 7B) [5] [μm]","neurite length of DRG explants after 72 h, CDNF 1.8 and 18 μg/mL (Figure 1B) [1] [μm]","neuritic area of DRG explants after 72 h, CDNF 18 μg/mL (Figure 1C) [2] [μm^2]","neurite length of DRG explants after NGF deprivation, CDNF 18 μg/mL for 48 h (Figure 3B) [3] [μm]","viable cells by LDH release, DRG explants under trophic deprivation, CDNF 18 μg/mL (Figure 3E) [4] [%]","neurite length in dissociated DRG cell cultures, CDNF 18 μg/mL, 3 days (Figure 7B) [5] [μm]"
CDNF‐ΔKTEL (CDNF without the last four residues KTEL) (domain or fragment),200,2.9e+06,200,61,< 200,–,–,–,–,–
cerebral dopamine neurotrophic factor (CDNF) (from UniProt Q49AH0 25-187) (ligand),–,–,–,–,–,600,5.2e+06,500,75,390
